Series [1] concerns the target T1, PIF4 (Arabidopsis thaliana, UniProt Q8W2F3 1-430).
T1 sequence: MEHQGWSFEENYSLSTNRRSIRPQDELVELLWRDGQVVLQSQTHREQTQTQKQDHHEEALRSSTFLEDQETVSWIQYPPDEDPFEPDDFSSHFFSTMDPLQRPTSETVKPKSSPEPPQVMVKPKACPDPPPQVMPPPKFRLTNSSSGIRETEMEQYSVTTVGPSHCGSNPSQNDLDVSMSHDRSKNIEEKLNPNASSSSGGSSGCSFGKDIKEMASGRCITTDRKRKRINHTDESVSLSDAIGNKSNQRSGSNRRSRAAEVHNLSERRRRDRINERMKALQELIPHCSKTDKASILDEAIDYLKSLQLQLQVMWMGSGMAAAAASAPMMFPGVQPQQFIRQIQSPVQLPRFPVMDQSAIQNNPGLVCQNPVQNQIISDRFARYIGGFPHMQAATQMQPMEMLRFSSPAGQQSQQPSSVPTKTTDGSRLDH
The experiment in a line: EMSA; EMSA according to Martinez et al. 2018 with minor modifications, LightShift chemiluminescent kit; buffer, salt, pH and temperature not stated. To be noted: protein: ivt; label: 5' biotin (probe); blunt.

Series [2] has as its target T1, PIF4. The experiment in a line: EMSA; positive control; EMSA according to Martinez et al. 2018 with minor modifications, LightShift chemiluminescent kit; buffer, salt, pH and temperature not stated. To be noted: protein: ivt; label: 5' biotin; blunt.

B1: pCLE44 PBE1 WT (dsDNA)
DNA 1: GTAATATAGTGAGGTGGTCACATGTAATGGATTCAATCCAC
DNA 2: GTGGATTGAATCCATTACATGTGACCACCTCACTATATTAC
As to B1, the binding result with PIF4 [1] is recorded as “binds”.

B2: pPIL1 G-box (dsDNA)
DNA 1: TAATGGCGTGAAGGTTCTTTCCGCTCACGTGGGCCTTTTG
DNA 2: CAAAAGGCCCACGTGAGCGGAAAGAACCTTCACGCCATTA
Consider B2, for which, in the series with PIF4 [2], the binding result is recorded as “binds”.

For the origin of these results see article PMC9638722, “Light regulates xylem cell differentiation via PIF in Arabidopsis”.
